Test: soluble on expression in E. coli; label from the status in PepcDB or PDB records

| Sequence | soluble on expression in E. coli |
| --- | --- |
| MGSDKIHHHHHHMKELRIDPITNDVVIFATDRLKRPLDTADIPNEDEETNEYDEECPFCKGNEAHATDALFEIDSEEGWLVKSVYNKFPIIDDMARDVYGVHEVMIESDKHNRSFYNMSQKEFEDVFFMYRNRFRDLSKDDKVEYVSIFKNFLRKAGASLMHPHAQILSMSFIPPEITNELLVSKEYYDSNKSSLYDDLIENEISLDRRVVYNGEAFLVLIPYATKYSGEVRIIFKDKIEFGELNDNNIQELSTIFEKLFKKLYNINGYMPFNLCIHTHPTKIETKSYFNVHMHIIPRKYNFGGFELGTNMYVSSMSPEDLTKKLKID | not soluble |
| MKEKILLGGYTKRVSKGVYSVLLDTKAAELSSLNEVAAVQNPTYITLDEKGHLYTCAADSNGGGIAAFDFDGETATHLGNVTTTGAPLCYVAVDEARQLVYGANYHLGEVRVYKIQANGSLRLTDTVKHTGSGPRPEQASSHVHYSDLTPDGRLVTCDLGTDEVTVYDVIGEGKLNIATIYRAEKGMGARHITFHPNGKIAYLVGELNSTIEVLSYNEEKGRFARLQTISTLPEDYHGANGVAAIRISSDGKFLYTSNRGHDSLTTYKVSPLGTKLETIGWTNTEGHIPRDFNFNKTEDYIIVAHQESDNLSLFLRDKKTGTLTLEQKDFYAPEITCVLPLLEHHHHHH | not soluble |
| MAILAARIAVSNLHKETKKVFSDVMEDLYNYINPHNGKHSPMVAKSTLDIVLANKDRLNSAIIYDRDFSYNYFGFKTLERSYLLKINGKVAERPQHMLMRVSVGIHKEDIDAAIETYNLLSERWFTHASPTLFNAGTNRPQLSSCFLLSMKDDSIEGIYDTLKQCALISKSAGGIGVAVSCIRATGSYIAGTNGNSNGLVPMLRVYNNTARYVDQGGNKRPGAFAIYLEPWHLDIFEFLDLKKNTGKEEQRARDLFFALWIPDLFMKRVETNQDWSLMCPNECPGLDEVWGEEFEKLYASYEKQGRVRKVVKAQQLWYAIIESQTETGTPYMLYKDSCNRKSNQQNLGTIKCSNLCTEIVEYTSKDEVAVCNLASLALNMYVTSEHTYDFKKLAEVTKVVVRNLNKIIDINYYPVPEACLSNKRHRPIGIGVQGLADAFILMRYPFESAEAQLLNKQIFETIYYGALEASCDLAKEQGPYETYEGSPVSKGILQYDMWNVTPTDLWDWKVLKEKIAKYGIRNSLLIAPMPTASTAQILGNNESIEPYTSNIYTRRVLSGEFQIVNPHLLKDLTERGLWHEEMKNQIIACNGSIQSIPEIPDDLKQLYKTVWEISQKTVLKMAAERGAFIDQSQSLNIHIAEPNYGKLTSMHFYGWKQGLKTGMYYLRTRAHHHHHH | soluble |
| MRRTRRPRFVLMNKMDDLNLHYRFLNWRRRIREIREVRAFRYQERFKHILVDGDTLSYHGNSGEVGCYVASRPLTKDSNYFEVSIVDSGVRGTIAVGLVPQYYSLDHQPGWLPDSVAYHADDGKLYNGRAKGRQFGSKCNSGDRIGCGIEPVSFDVQTAQIFFTKNGKRVGSTIMPMSPDGLFPAVGMHSLGEEVRLHLNAELGREDDSVMMVDSYEDEWGRLHDVRVCGTLLEYLGKGKSIVDVGLAQARHPLSTRSHYFEVEIVDPGEKCYIALGLARKDYPKNRHPGWSRGSVAYHADDGKIFHGSGVGDPFGPRCYKGDIMGCGIMFPRDYILDSEGDSDDSCDTVILSPTARAVRNVRNVMYLHQEGEEEEEEEEEEEDGEEIEPEHEGRKVVVFFTRNGKIIGKKDAVVPSGGFFPTIGMLSCGEKVKVDLHPLSG | soluble |
| MLGGKGRPSGVGGYRILVTTSRRPSPRIRSFVKDLSATIPGAFRFTRGHYSMEELAREAIIRGADRIVVVGERRGNPGIIRVYAVEGPERPDNIVSFIVKGVSLSRERRWGLPSLRGGEVLVARPLDSGVAVEFADAFVIAFHARLKPPEAAGYVEAVIESLDARTVAVTFRYGGAPVGPMLRLGKPAEMVKRGRRVAAALEHHHHHH | not soluble |
| MRYERIKYILLFSLMHLVYSNSTFESNPEVRNKSNIYDLPPLLDVTSVNEETPIVKRPINERIENLEFDPRFEIDQAKLEISEDKLGSGFFGEVCYGLLSMRTSNTETDTLQKLSVAVKQSNDPTQENQEKMIEDETKLMCAIGRNPNILAIIGAVTANSGSARNLLIVEFVECGDLLKFLEEKKSIFKDELVYEKNGYLLPKSIRRKTYMFNENEDDVIEESLDSLCTSDLLSFSYQIAEGMEYLASIPCVHRDLALRNVLLNKNKTIRIADFGLARKYQVDGYYRITKGVGTPMPARWMAPEVMREGKCTEKSDVWSYGVSLYEMFSLGELPYSNVSNSDVFEHVVQGNQLPMPQYCHPKMYDRMKQFWNFDATFRPSFSKCVEFFEEHLSVSATNLLEQIQKTLKSEAERQSKLEDWIRRD | not soluble |
| MPYLNADRGKSGGYHIGHTLLWSSGKSRLEAIRYHVETSALEKIMFARLLSSERDEYSSEETEHRFDEGLQIYGYSPEDVSKARNKMAGFLAGWRHAVSVRRASMEQSADTEQ | soluble |

Source: the DeepSol protein solubility set
